According to publication PMC10423226, “Identification of a drug binding pocket in TMEM16F calcium-activated ion channel and lipid scramblase” (Nature Communications, 2023):

Biological target: the molecule itself
Assay: cryo-EM structure; TMEM16F in MSP2N2-SoyPC nanodiscs with PIP2 and 4 mM CaCl2, without drug or with 50 uM niclosamide or 100 uM 1PBC; no C2 symmetry imposed

B1: TMEM16F (natural protein, UniProt Q6P9J9 1-911, looked up)
chain: MQMMTRKVLLNMELEEDDDEDGDIVLENFDQTIVCPTFGSLENQQDFRTPEFEEFNGKPDSLFFTDGQRRIDFILVYEDESKKENNKKGTNEKQKRKRQAYESNLICHGLQLEATRSVSDDKLVFVKVHAPWEVLCTYAEIMHIKLPLKPNDLKTRSPFGNLNWFTKVLRVNESVIKPEQEFFTAPFEKSRMNDFYILDRDSFFNPATRSRIVYFILSRVKYQVMNNVNKFGINRLVSSGIYKAAFPLHDCRFNYESEDISCPSERYLLYREWAHPRSIYKKQPLDLIRKYYGEKIGIYFAWLGYYTQMLLLAAVVGVACFLYGYLDQDNCTWSKEVCDPDIGGQILMCPQCDRLCPFWRLNITCESSKKLCIFDSFGTLIFAVFMGVWVTLFLEFWKRRQAELEYEWDTVELQQEEQARPEYEAQCNHVVINEITQEEERIPFTTCGKCIRVTLCASAVFFWILLIIASVIGIIVYRLSVFIVFSTTLPKNPNGTDPIQKYLTPQMATSITASIISFIIIMILNTIYEKVAIMITNFELPRTQTDYENSLTMKMFLFQFVNYYSSCFYIAFFKGKFVGYPGDPVYLLGKYRSEECDPGGCLLELTTQLTIIMGGKAIWNNIQEVLLPWVMNLIGRYKRVSGSEKITPRWEQDYHLQPMGKLGLFYEYLEMIIQFGFVTLFVASFPLAPLLALVNNILEIRVDAWKLTTQFRRMVPEKAQDIGAWQPIMQGIAILAVVTNAMIIAFTSDMIPRLVYYWSFSIPPYGDHTYYTMDGYINNTLSVFNITDFKNTDKENPYIGLGNYTLCRYRDFRNPPGHPQEYKHNIYYWHVIAAKLAFIIVMEHIIYSVKFFISYAIPDVSKITKSKIKREKYLTQKLLHESHLKDLTKNMGIIAERIGGTVDNSVRPKLE
modifications: glycans on the extracellular loops
notes: Sample in lipid nanodiscs (MSP2N2, SoyPC) with PIP2 and 4 mM CaCl2; also called mTMEM16F; TMEM16F dimer; source: HEK293s cells, extracted and purified in DDM/CHS, reconstituted in MSP2N2-SoyPC nanodiscs, FPLC
  stoichiometry N: 2
